# Assay results: PMC4703857
# Tests used:
# [1] = biological target: haemoglobin:haptoglobin complex (UniProt P00738); test: ITC
# [2] = biological target: human haemoglobin (human); test: ITC
# [3] = biological target: Kingella denitrificans HpuA, wild type (Kingella denitrificans); test: ITC
# [4] = biological target: KdHpuA T124D (Kingella denitrificans); test: NMR titration
# [5] = biological target: KdHpuA Δloop-1 (Kingella denitrificans); test: NMR titration
# [6] = biological target: Kingella denitrificans HpuA, wild type (Kingella denitrificans); test: NMR titration
# [7] = biological target: transferrin (Homo sapiens) (UniProt P02787); conditions: cited from earlier work
# Sequence of UniProt P02787 (P02787 20-698): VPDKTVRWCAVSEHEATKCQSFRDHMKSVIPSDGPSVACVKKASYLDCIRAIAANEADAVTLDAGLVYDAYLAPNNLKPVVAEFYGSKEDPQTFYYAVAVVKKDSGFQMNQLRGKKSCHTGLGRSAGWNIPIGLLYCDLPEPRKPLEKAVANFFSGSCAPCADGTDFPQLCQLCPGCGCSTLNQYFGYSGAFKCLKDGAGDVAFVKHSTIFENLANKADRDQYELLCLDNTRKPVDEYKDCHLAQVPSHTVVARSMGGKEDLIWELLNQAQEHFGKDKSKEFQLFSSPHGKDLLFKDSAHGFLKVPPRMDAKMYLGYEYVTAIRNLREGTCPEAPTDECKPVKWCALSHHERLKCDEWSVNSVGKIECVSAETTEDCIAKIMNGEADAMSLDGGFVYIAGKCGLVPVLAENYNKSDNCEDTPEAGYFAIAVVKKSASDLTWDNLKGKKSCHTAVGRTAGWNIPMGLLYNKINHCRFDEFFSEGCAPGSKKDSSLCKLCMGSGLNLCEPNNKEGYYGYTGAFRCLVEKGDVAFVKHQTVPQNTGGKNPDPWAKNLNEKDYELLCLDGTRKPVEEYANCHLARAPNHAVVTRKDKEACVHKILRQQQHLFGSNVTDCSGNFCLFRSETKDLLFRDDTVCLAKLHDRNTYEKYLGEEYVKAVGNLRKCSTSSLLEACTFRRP
substance,measurement,setting,value
"Kingella denitrificans HpuA, wild type (natural protein)",Kd,[1],2.9 µM
same,stoichiometry N (HpuA per Hb4:Hp4 complex),[1],2
same,Kd,[2],10.9 µM
same,stoichiometry N (HpuA per Hb tetramer),[2],2
human haemoglobin (complex),Kd,[3],6.1 µM
same,stoichiometry N (Hb tetramers per HpuA),[3],0.5
same,Kd,[4],16 µM
same,Kd,[5],150 µM
same,Kd,[6],10 µM
TbpAB (from UniProt Q9K0U9),Kd,[7],0.0008 µM
